From article doi:10.1101/2025.10.01.679551, “Mechanism of phosphoinositide regulation of lysosomal pH via inhibition of CLC-7” (bioRxiv, 2025) come the findings set out here.

The chains are these.
B1: human ClC-7 (wild type), C-terminal 6His-tag (natural protein)
chain: MANVSKKVSWSGRDRDDEEAAPLLRRTARPGGGTPLLNGAGPGAARQSPRSALFRVGHMSSVELDDELLDPDMDPPHPFPKEIPHNEKLLSLKYESLDYDNSENQLFLEEERRINHTAFRTVEIKRWVICALIGILTGLVACFIDIVVENLAGLKYRVIKGNIDKFTEKGGLSFSLLLWATLNAAFVLVGSVIVAFIEPVAAGSGIPQIKCFLNGVKIPHVVRLKTLVIKVSGVILSVVGGLAVGKEGPMIHSGSVIAAGISQGRSTSLKRDFKIFEYFRRDTEKRDFVSAGAAAGVSAAFGAPVGGVLFSLEEGASFWNQFLTWRIFFASMISTFTLNFVLSIYHGNMWDLSSPGLINFGRFDSEKMAYTIHEIPVFIAMGVVGGVLGAVFNALNYWLTMFRIRYIHRPCLQVIEAVLVAAVTATVAFVLIYSSRDCQPLQGGSMSYPLQLFCADGEYNSMAAAFFNTPEKSVVSLFHDPPGSYNPLTLGLFTLVYFFLACWTYGLTVSAGVFIPSLLIGAAWGRLFGISLSYLTGAAIWADPGKYALMGAAAQLGGIVRMTLSLTVIMMEATSNVTYGFPIMLVLMTAKIVGDVFIEGLYDMHIQLQSVPFLHWEAPVTSHSLTAREVMSTPVTCLRRREKVGVIVDVLSDTASNHNGFPVVEHADDTQPARLQGLILRSQLIVLLKHKVFVERSNLGLVQRRLRLKDFRDAYPRFPPIQSIHVSQDERECTMDLSEFMNPSPYTVPQEASLPRVFKLFRALGLRHLVVVDNRNQVVGLVTRKDLARYRLGKRGLEELSLAQT
notes: ClC-7 Cl-/H+ antiporter, Homo sapiens, synthesised gene in pLexM; Homodimer; each subunit carries one Ostm1; The cytoplasmic domain is not resolved in the structure without lipid (9G6D); also called wtCLC7; WT-CLC7; source: HEK293F (Freestyle 293F), co-transfected with OSTM1-Flag
B2: human ClC-7 Y715C, C-terminal 6His-tag (natural protein)
chain: MANVSKKVSWSGRDRDDEEAAPLLRRTARPGGGTPLLNGAGPGAARQSPRSALFRVGHMSSVELDDELLDPDMDPPHPFPKEIPHNEKLLSLKYESLDYDNSENQLFLEEERRINHTAFRTVEIKRWVICALIGILTGLVACFIDIVVENLAGLKYRVIKGNIDKFTEKGGLSFSLLLWATLNAAFVLVGSVIVAFIEPVAAGSGIPQIKCFLNGVKIPHVVRLKTLVIKVSGVILSVVGGLAVGKEGPMIHSGSVIAAGISQGRSTSLKRDFKIFEYFRRDTEKRDFVSAGAAAGVSAAFGAPVGGVLFSLEEGASFWNQFLTWRIFFASMISTFTLNFVLSIYHGNMWDLSSPGLINFGRFDSEKMAYTIHEIPVFIAMGVVGGVLGAVFNALNYWLTMFRIRYIHRPCLQVIEAVLVAAVTATVAFVLIYSSRDCQPLQGGSMSYPLQLFCADGEYNSMAAAFFNTPEKSVVSLFHDPPGSYNPLTLGLFTLVYFFLACWTYGLTVSAGVFIPSLLIGAAWGRLFGISLSYLTGAAIWADPGKYALMGAAAQLGGIVRMTLSLTVIMMEATSNVTYGFPIMLVLMTAKIVGDVFIEGLYDMHIQLQSVPFLHWEAPVTSHSLTAREVMSTPVTCLRRREKVGVIVDVLSDTASNHNGFPVVEHADDTQPARLQGLILRSQLIVLLKHKVFVERSNLGLVQRRLRLKDFRDACPRFPPIQSIHVSQDERECTMDLSEFMNPSPYTVPQEASLPRVFKLFRALGLRHLVVVDNRNQVVGLVTRKDLARYRLGKRGLEELSLAQT
notes: ClC-7 Cl-/H+ antiporter, Homo sapiens, synthesised gene in pLexM with the patient gain-of-function mutation Y715C; Y715C is a mutation found in human patients; The cytoplasmic domain is not resolved in 9G6E; also called CLC7Y715C-His; source: HEK293F (Freestyle 293F), co-transfected with OSTM1-Flag

Data set [1] deals with the molecule itself. Kind of data set: cryo-EM structure; ClC-7/Ostm1 complex co-expressed in HEK293F, purified by FLAG affinity and SEC in LMNG/CHS with lipid bought as PI(3,5)P2 added during purification; supplemented with 0.1 % LMNG and 2.5 mM ATP; C2 symmetry.
Data set [2] concerns the molecule itself. Kind of data set: cryo-EM structure; ClC-7/Ostm1 complex co-expressed in HEK293F, purified by FLAG affinity and SEC in LMNG/CHS, no lipid added (apo); C2 symmetry.
Data set [3] has as its target B2. The data set is described as above. Particulars: both partners purified.
Data set [4] has as its target B1. The data set is described as above. Particulars: both partners purified.

On to B1, for which the binding result in data set [1] is “binds”.

In the case of B2, the binding result in data set [2] is given as “binds”.

B3: human Ostm1, C-terminal Flag-tag (natural protein)
chain: ALPFGSSPHRVFHDLLSEQQLLEVEDLSLSLLQGGGLGPLSLPPDLPDLDPECRELLLDFANSSAELTGCLVRSARPVRLCQTCYPLFQQVVSKMDNISRAAGNTSESQSCARSLLMADRMQIVVILSEFFNTTWQEANCANCLTNNSEELSNSTVYFLNLFNHTLTCFEHNLQGNAHSLLQTKNYSEVCKNCREAYKTLSSLYSEMQKMNELENKAEPGTHLCIDVEDAMNITRKLWSRTFNCSVPCSDTVPVIAVSVFILFLPVVFYLSSFLHSEQKKRKLILPKRLKSSTSFANIQENSN
notes: Ostm1, Homo sapiens, synthesised gene in pLexM; Two copies in the ClC-7/Ostm1 complex, one for each ClC-7 subunit; also called OSTM1-Flag; source: HEK293F (Freestyle 293F), co-transfected with CLC7-His or CLC7Y715C-His; not shown: Flag, C-terminal, kept
Turning to B3, the binding result in data set [3] and in data set [4] was “binds” in each case.
